This passage reports He/Con_1a results from patent US20150344570A1 (published 2015).

This test deals with T1, FcγRIa (human, UniProt P12314 16-292).
T1 construct: extracellular domain; also called FcgRI; FcgRIa; not shown: His tag attached to the C terminus
Kind of test: SPR (Biacore), relative binding; control HeCon Ab GpH7-A5/GpH7-B3/GpL16-k0. (SPR reads the build-up and loss of mass on a sensor chip optically.)

T1 sequence (P12314 16-292): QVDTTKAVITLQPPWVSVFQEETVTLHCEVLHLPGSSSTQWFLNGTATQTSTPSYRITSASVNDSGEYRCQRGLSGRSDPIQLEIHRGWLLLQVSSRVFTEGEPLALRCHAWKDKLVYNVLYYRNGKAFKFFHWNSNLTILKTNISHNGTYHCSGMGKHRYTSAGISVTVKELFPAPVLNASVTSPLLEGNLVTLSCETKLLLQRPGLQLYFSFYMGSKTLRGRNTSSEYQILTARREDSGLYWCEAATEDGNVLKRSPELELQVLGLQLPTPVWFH

B1: GpH7-A5/GpH7-B3 variant K334_08L/GpL16-k0 (antibody, human IgG1, kappa)
heavy 1: not shown
heavy 2: not shown
light: DIVMTQSPLSLPVTPGEPASISCQASESLVHSNRNTYLHWYLQKPGQSPQLLIYKVSNRFSGVPDRFSGSGSGTDFTLKISRVEAEDVGVYYCSQNTHVPPTFGQGTKVEIERTVAAPSVFIFPPSDEQLKSGTASVVCLLNNFYPREAKVQWKVDNALQSGNSQESVTEQDSKDSTYSLSSTLTLSKADYEKHKVYACEVTHQGLSSPVTKSFNRGEC
notes: Alteration in one H chain only; also called He Ab K334_08L
Turning to B1, the He/Con_1a was 105 % of control (=100).

B2: GpH7-A5/GpH7-B3 variant P271_18N/GpL16-k0 (antibody, human IgG1, kappa)
heavy 1: not shown
heavy 2: not shown
light: DIVMTQSPLSLPVTPGEPASISCQASESLVHSNRNTYLHWYLQKPGQSPQLLIYKVSNRFSGVPDRFSGSGSGTDFTLKISRVEAEDVGVYYCSQNTHVPPTFGQGTKVEIERTVAAPSVFIFPPSDEQLKSGTASVVCLLNNFYPREAKVQWKVDNALQSGNSQESVTEQDSKDSTYSLSSTLTLSKADYEKHKVYACEVTHQGLSSPVTKSFNRGEC
notes: Alteration in one H chain only; also called He Ab P271_18N
For the molecule B2, the He/Con_1a was 103 % of control (=100).

B3: GpH7-A5/GpH7-B3 variant K334_18N/GpL16-k0 (antibody, human IgG1, kappa)
heavy 1: not shown
heavy 2: not shown
light: DIVMTQSPLSLPVTPGEPASISCQASESLVHSNRNTYLHWYLQKPGQSPQLLIYKVSNRFSGVPDRFSGSGSGTDFTLKISRVEAEDVGVYYCSQNTHVPPTFGQGTKVEIERTVAAPSVFIFPPSDEQLKSGTASVVCLLNNFYPREAKVQWKVDNALQSGNSQESVTEQDSKDSTYSLSSTLTLSKADYEKHKVYACEVTHQGLSSPVTKSFNRGEC
notes: Alteration in one H chain only; also called He Ab K334_18N
B3: the He/Con_1a was 105 % of control (=100).

B4: GpH7-A5/GpH7-B3 variant K334_13S/GpL16-k0 (antibody, human IgG1, kappa)
heavy 1: not shown
heavy 2: not shown
light: DIVMTQSPLSLPVTPGEPASISCQASESLVHSNRNTYLHWYLQKPGQSPQLLIYKVSNRFSGVPDRFSGSGSGTDFTLKISRVEAEDVGVYYCSQNTHVPPTFGQGTKVEIERTVAAPSVFIFPPSDEQLKSGTASVVCLLNNFYPREAKVQWKVDNALQSGNSQESVTEQDSKDSTYSLSSTLTLSKADYEKHKVYACEVTHQGLSSPVTKSFNRGEC
notes: Alteration in one H chain only; also called He Ab K334_13S
In the case of B4, the He/Con_1a is 105 % of control (=100).

B5: GpH7-A5/GpH7-B3 variant K334_09D/GpL16-k0 (antibody, human IgG1, kappa)
heavy 1: not shown
heavy 2: not shown
light: DIVMTQSPLSLPVTPGEPASISCQASESLVHSNRNTYLHWYLQKPGQSPQLLIYKVSNRFSGVPDRFSGSGSGTDFTLKISRVEAEDVGVYYCSQNTHVPPTFGQGTKVEIERTVAAPSVFIFPPSDEQLKSGTASVVCLLNNFYPREAKVQWKVDNALQSGNSQESVTEQDSKDSTYSLSSTLTLSKADYEKHKVYACEVTHQGLSSPVTKSFNRGEC
notes: Alteration in one H chain only; also called He Ab K334_09D
With B5, the He/Con_1a was 106 % of control (=100).

B6: GpH7-A5/GpH7-B3 variant Q295_12R/GpL16-k0 (antibody, human IgG1, kappa)
heavy 1: not shown
heavy 2: not shown
light: DIVMTQSPLSLPVTPGEPASISCQASESLVHSNRNTYLHWYLQKPGQSPQLLIYKVSNRFSGVPDRFSGSGSGTDFTLKISRVEAEDVGVYYCSQNTHVPPTFGQGTKVEIERTVAAPSVFIFPPSDEQLKSGTASVVCLLNNFYPREAKVQWKVDNALQSGNSQESVTEQDSKDSTYSLSSTLTLSKADYEKHKVYACEVTHQGLSSPVTKSFNRGEC
notes: Alteration in one H chain only; also called He Ab Q295_12R
Consider B6, for which the He/Con_1a is 100 % of control (=100).

B7: GpH7-A5/GpH7-B3 variant S267_06M/GpL16-k0 (antibody, human IgG1, kappa)
heavy 1: not shown
heavy 2: not shown
light: DIVMTQSPLSLPVTPGEPASISCQASESLVHSNRNTYLHWYLQKPGQSPQLLIYKVSNRFSGVPDRFSGSGSGTDFTLKISRVEAEDVGVYYCSQNTHVPPTFGQGTKVEIERTVAAPSVFIFPPSDEQLKSGTASVVCLLNNFYPREAKVQWKVDNALQSGNSQESVTEQDSKDSTYSLSSTLTLSKADYEKHKVYACEVTHQGLSSPVTKSFNRGEC
notes: Alteration in one H chain only; also called He Ab S267_06M
With B7, the He/Con_1a is 106 % of control (=100).

B8: GpH7-A5/GpH7-B3 variant P271_08L/GpL16-k0 (antibody, human IgG1, kappa)
heavy 1: not shown
heavy 2: not shown
light: DIVMTQSPLSLPVTPGEPASISCQASESLVHSNRNTYLHWYLQKPGQSPQLLIYKVSNRFSGVPDRFSGSGSGTDFTLKISRVEAEDVGVYYCSQNTHVPPTFGQGTKVEIERTVAAPSVFIFPPSDEQLKSGTASVVCLLNNFYPREAKVQWKVDNALQSGNSQESVTEQDSKDSTYSLSSTLTLSKADYEKHKVYACEVTHQGLSSPVTKSFNRGEC
notes: Alteration in one H chain only; also called He Ab P271_08L
Take B8: the He/Con_1a is 102 % of control (=100).

B9: GpH7-A5/GpH7-B3 variant S267_19Q/GpL16-k0 (antibody, human IgG1, kappa)
heavy 1: not shown
heavy 2: not shown
light: DIVMTQSPLSLPVTPGEPASISCQASESLVHSNRNTYLHWYLQKPGQSPQLLIYKVSNRFSGVPDRFSGSGSGTDFTLKISRVEAEDVGVYYCSQNTHVPPTFGQGTKVEIERTVAAPSVFIFPPSDEQLKSGTASVVCLLNNFYPREAKVQWKVDNALQSGNSQESVTEQDSKDSTYSLSSTLTLSKADYEKHKVYACEVTHQGLSSPVTKSFNRGEC
notes: Alteration in one H chain only; also called He Ab S267_19Q
For B9, the He/Con_1a was 102 % of control (=100).

B10: GpH7-A5/GpH7-B3 variant Q295_10E/GpL16-k0 (antibody, human IgG1, kappa)
heavy 1: not shown
heavy 2: not shown
light: DIVMTQSPLSLPVTPGEPASISCQASESLVHSNRNTYLHWYLQKPGQSPQLLIYKVSNRFSGVPDRFSGSGSGTDFTLKISRVEAEDVGVYYCSQNTHVPPTFGQGTKVEIERTVAAPSVFIFPPSDEQLKSGTASVVCLLNNFYPREAKVQWKVDNALQSGNSQESVTEQDSKDSTYSLSSTLTLSKADYEKHKVYACEVTHQGLSSPVTKSFNRGEC
notes: Alteration in one H chain only; also called He Ab Q295_10E
In the case of B10, the He/Con_1a is 103 % of control (=100).

B11: GpH7-A5/GpH7-B3 variant K334_16H/GpL16-k0 (antibody, human IgG1, kappa)
heavy 1: not shown
heavy 2: not shown
light: DIVMTQSPLSLPVTPGEPASISCQASESLVHSNRNTYLHWYLQKPGQSPQLLIYKVSNRFSGVPDRFSGSGSGTDFTLKISRVEAEDVGVYYCSQNTHVPPTFGQGTKVEIERTVAAPSVFIFPPSDEQLKSGTASVVCLLNNFYPREAKVQWKVDNALQSGNSQESVTEQDSKDSTYSLSSTLTLSKADYEKHKVYACEVTHQGLSSPVTKSFNRGEC
notes: Alteration in one H chain only; also called He Ab K334_16H
Consider B11, for which the He/Con_1a is 105 % of control (=100).
